Patent US20240124553A1

Assays:
Assay in all cases: flow cytometry, transfected 293T cells
[1] = biological target: CHIKV E2-E1 envelope glycoproteins (strain S27), E2 mutant A33S (chikungunya virus strain S27) (UniProt Q8JUX5)
[2] = biological target: CHIKV E2-E1 envelope glycoproteins (strain S27), E2 mutant D132A (chikungunya virus strain S27) (UniProt Q8JUX5)
[3] = biological target: CHIKV E2-E1 envelope glycoproteins (strain S27), E2 mutant D63A (chikungunya virus strain S27) (UniProt Q8JUX5)
[4] = biological target: CHIKV E2-E1 envelope glycoproteins (strain S27), E2 mutant D71A (chikungunya virus strain S27) (UniProt Q8JUX5)
[5] = biological target: CHIKV E2-E1 envelope glycoproteins (strain S27), E2 mutant D77A (chikungunya virus strain S27) (UniProt Q8JUX5)
[6] = biological target: CHIKV E2-E1 envelope glycoproteins (strain S27), E2 mutant G114A (chikungunya virus strain S27) (UniProt Q8JUX5)
[7] = biological target: CHIKV E2-E1 envelope glycoproteins (strain S27), E2 mutant G44A (chikungunya virus strain S27) (UniProt Q8JUX5)
[8] = biological target: CHIKV E2-E1 envelope glycoproteins (strain S27), E2 mutant G57A (chikungunya virus strain S27) (UniProt Q8JUX5)
[9] = biological target: CHIKV E2-E1 envelope glycoproteins (strain S27), E2 mutant G79A (chikungunya virus strain S27) (UniProt Q8JUX5)
[10] = biological target: CHIKV E2-E1 envelope glycoproteins (strain S27), E2 mutant G82A (chikungunya virus strain S27) (UniProt Q8JUX5)
[11] = biological target: CHIKV E2-E1 envelope glycoproteins (strain S27), E2 mutant G98A (chikungunya virus strain S27) (UniProt Q8JUX5)
[12] = biological target: CHIKV E2-E1 envelope glycoproteins (strain S27), E2 mutant H127A (chikungunya virus strain S27) (UniProt Q8JUX5)
[13] = biological target: CHIKV E2-E1 envelope glycoproteins (strain S27), E2 mutant H62A (chikungunya virus strain S27) (UniProt Q8JUX5)
[14] = biological target: CHIKV E2-E1 envelope glycoproteins (strain S27), E2 mutant I56A (chikungunya virus strain S27) (UniProt Q8JUX5)
[15] = biological target: CHIKV E2-E1 envelope glycoproteins (strain S27), E2 mutant I74A (chikungunya virus strain S27) (UniProt Q8JUX5)
[16] = biological target: CHIKV E2-E1 envelope glycoproteins (strain S27), E2 mutant I93A (chikungunya virus strain S27) (UniProt Q8JUX5)
[17] = biological target: CHIKV E2-E1 envelope glycoproteins (strain S27), E2 mutant K107A (chikungunya virus strain S27) (UniProt Q8JUX5)
[18] = biological target: CHIKV E2-E1 envelope glycoproteins (strain S27), E2 mutant K47A (chikungunya virus strain S27) (UniProt Q8JUX5)
[19] = biological target: CHIKV E2-E1 envelope glycoproteins (strain S27), E2 mutant L67A (chikungunya virus strain S27) (UniProt Q8JUX5)
[20] = biological target: CHIKV E2-E1 envelope glycoproteins (strain S27), E2 mutant L83A (chikungunya virus strain S27) (UniProt Q8JUX5)
[21] = biological target: CHIKV E2-E1 envelope glycoproteins (strain S27), E2 mutant M70A (chikungunya virus strain S27) (UniProt Q8JUX5)
[22] = biological target: CHIKV E2-E1 envelope glycoproteins (strain S27), E2 mutant P106A (chikungunya virus strain S27) (UniProt Q8JUX5)
[23] = biological target: CHIKV E2-E1 envelope glycoproteins (strain S27), E2 mutant P75A (chikungunya virus strain S27) (UniProt Q8JUX5)
[24] = biological target: CHIKV E2-E1 envelope glycoproteins (strain S27), E2 mutant Q53A (chikungunya virus strain S27) (UniProt Q8JUX5)
[25] = biological target: CHIKV E2-E1 envelope glycoproteins (strain S27), E2 mutant R104A (chikungunya virus strain S27) (UniProt Q8JUX5)
[26] = biological target: CHIKV E2-E1 envelope glycoproteins (strain S27), E2 mutant R36A (chikungunya virus strain S27) (UniProt Q8JUX5)
[27] = biological target: CHIKV E2-E1 envelope glycoproteins (strain S27), E2 mutant S124A (chikungunya virus strain S27) (UniProt Q8JUX5)
[28] = biological target: CHIKV E2-E1 envelope glycoproteins (strain S27), E2 mutant S51A (chikungunya virus strain S27) (UniProt Q8JUX5)
[29] = biological target: CHIKV E2-E1 envelope glycoproteins (strain S27), E2 mutant S61A (chikungunya virus strain S27) (UniProt Q8JUX5)
[30] = biological target: CHIKV E2-E1 envelope glycoproteins (strain S27), E2 mutant T112A (chikungunya virus strain S27) (UniProt Q8JUX5)
[31] = biological target: CHIKV E2-E1 envelope glycoproteins (strain S27), E2 mutant T58A (chikungunya virus strain S27) (UniProt Q8JUX5)
[32] = biological target: CHIKV E2-E1 envelope glycoproteins (strain S27), E2 mutant T92A (chikungunya virus strain S27) (UniProt Q8JUX5)
[33] = biological target: CHIKV E2-E1 envelope glycoproteins (strain S27), E2 mutant T96A (chikungunya virus strain S27) (UniProt Q8JUX5)

Substance | Binding Reactivity (% WT) [1] [% WT] | Binding Reactivity (% WT) [2] [% WT] | Binding Reactivity (% WT) [3] [% WT] | Binding Reactivity (% WT) [4] [% WT] | Binding Reactivity (% WT) [5] [% WT] | Binding Reactivity (% WT) [6] [% WT] | Binding Reactivity (% WT) [7] [% WT] | Binding Reactivity (% WT) [8] [% WT] | Binding Reactivity (% WT) [9] [% WT] | Binding Reactivity (% WT) [10] [% WT] | Binding Reactivity (% WT) [11] [% WT] | Binding Reactivity (% WT) [12] [% WT] | Binding Reactivity (% WT) [13] [% WT] | Binding Reactivity (% WT) [14] [% WT] | Binding Reactivity (% WT) [15] [% WT] | Binding Reactivity (% WT) [16] [% WT] | Binding Reactivity (% WT) [17] [% WT] | Binding Reactivity (% WT) [18] [% WT] | Binding Reactivity (% WT) [19] [% WT] | Binding Reactivity (% WT) [20] [% WT] | also measured
CHIKV mAb C9 (antibody) | 86 | 94.4 | 71.8 | 91.8 | 93.3 | 67.5 | 72.5 | 109 | 81.4 | 90.2 | 102 | 92.4 | 93.1 | 114 | 108 | 10.4 | 95.6 | 84 | 60.9 | 18.7 | Binding Reactivity (% WT) [21]: 81 % WT; Binding Reactivity (% WT) [22]: 88.9 % WT; Binding Reactivity (% WT) [23]: 98.5 % WT; Binding Reactivity (% WT) [24]: 39.6 % WT; Binding Reactivity (% WT) [25]: 91.6 % WT; Binding Reactivity (% WT) [26]: 75.4 % WT; Binding Reactivity (% WT) [27]: 116 % WT; Binding Reactivity (% WT) [28]: 85.3 % WT; Binding Reactivity (% WT) [29]: 93.1 % WT; Binding Reactivity (% WT) [30]: 50.5 % WT; Binding Reactivity (% WT) [31]: 98.6 % WT; Binding Reactivity (% WT) [32]: 96 % WT; Binding Reactivity (% WT) [33]: 99.2 % WT
CHIKV mAb CHKV-88 (antibody) | 123 | 120 | 85 | 108 | 94.7 | 65.3 | 98.1 | 134 | 121 | 91.5 | 106 | 91 | 101 | 116 | 106 | 29.1 | 99.2 | 100 | 84.6 | 38.8 | Binding Reactivity (% WT) [21]: 93.7 % WT; Binding Reactivity (% WT) [22]: 105 % WT; Binding Reactivity (% WT) [23]: 115 % WT; Binding Reactivity (% WT) [24]: 85 % WT; Binding Reactivity (% WT) [25]: 76 % WT; Binding Reactivity (% WT) [26]: 83.8 % WT; Binding Reactivity (% WT) [27]: 112 % WT; Binding Reactivity (% WT) [28]: 96.9 % WT; Binding Reactivity (% WT) [29]: 105 % WT; Binding Reactivity (% WT) [30]: 71.6 % WT; Binding Reactivity (% WT) [31]: 81.2 % WT; Binding Reactivity (% WT) [32]: 109 % WT; Binding Reactivity (% WT) [33]: 103 % WT
